In patent US11406665B2, “Therapeutic peptides that target TGF-beta interaction” (GENAGON THERAPEUTICS AB, priority 2017, dated 2022):

T1: TGFb3 (Homo sapiens, UniProt P10600)
T1 construct: purchased Abcam
T1 sequence (P10600 301-412 limits assumed): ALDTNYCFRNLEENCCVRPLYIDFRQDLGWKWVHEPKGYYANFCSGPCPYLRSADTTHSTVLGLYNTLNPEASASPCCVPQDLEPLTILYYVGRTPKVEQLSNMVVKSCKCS

T2: GDF15 (Homo sapiens, UniProt Q99988)
T2 construct: purchased Abcam
T2 sequence (Q99988 195-308): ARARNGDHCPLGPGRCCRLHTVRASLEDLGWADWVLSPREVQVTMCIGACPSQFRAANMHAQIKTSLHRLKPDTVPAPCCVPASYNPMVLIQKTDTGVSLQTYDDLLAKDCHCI

T3: TGFb2 (Homo sapiens, UniProt P61812)
T3 construct: purchased Abcam
T3 sequence (P61812 303-414 limits assumed): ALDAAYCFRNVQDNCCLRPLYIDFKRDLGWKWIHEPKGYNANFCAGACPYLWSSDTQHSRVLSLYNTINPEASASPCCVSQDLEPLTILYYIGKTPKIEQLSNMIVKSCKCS


How the values were obtained:
TGFb3 = target: T1, TGFb3; experiment: ELISA binding of ligand to immobilized CLPTM1 peptide fragments; conditions: biotinylated peptide immobilized at 1 μM; ligand 100 ng/ml; OD 450-620 measured
Description: (§1) Biotinylated synthetic peptide fragments from CLPTM1 (JPT peptides, Germany) were immobilized in a streptavidin 96 well plate (#15500 Pierce) at 1 μM in PBS over night at +4° C. Plate was then washed 4 times in 300 μl PBS with 0.05% tween-20 (wash buffer). The plate was then blocked with PBS 1% BSA and 0.05% tween-20 (blocking buffer) for 1.5 hours at room temperature, then washed 4 times in wash buffer. Ligands GDF15, TGFb1, TGFb2 and TGFb3 (Abcam) were added in blocking buffer at 100 ng/ml and incubated at room temperature for 2 hours. The plate was then washed 8 times in 300 μL wash buffer with 2× NaCl. An anti-GDF15 antibody was added at 1 μg/ml (R&D Systems, goat polyclonal) or a pan-specific anti-TGFb antibody (R&D Systems, mouse 1 D11), and the plate incubated in blocking buffer for 1 hour at room temperature followed by washing with 4×300 μl wash buffer. HAF017 anti-goat-HRP antibody (to detect the anti-GDF15 antibody) or Santa Cruz sc-2005 Goat anti-mouse-HRP (to detect the pan-specific anti-TGFb antibody) was added and the plate incubated for 1 hour in blocking buffer followed by a wash. TMB substrate was added and stopped after 15 minutes with H2SO4. OD 450-620 was measured in an ELISA reader.

GDF15 = target: T2, GDF15; experiment: as above; conditions: biotinylated peptide immobilized at 1 μM; ligand 100 ng/ml; OD 450-620 measured
Description: as §1

TGFb1 = target: T4, TGFb1 (Homo sapiens, UniProt P01137); experiment: as above; conditions: biotinylated peptide immobilized at 1 μM; ligand 100 ng/ml; OD 450-620 measured
T4 construct: purchased Abcam
T4 sequence (P01137 279-390 limits assumed): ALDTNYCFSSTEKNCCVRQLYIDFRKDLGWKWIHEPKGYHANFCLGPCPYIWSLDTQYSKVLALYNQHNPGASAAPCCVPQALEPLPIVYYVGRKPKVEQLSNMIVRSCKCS
Description: as §1

TGFb2 = target: T3, TGFb2; experiment: as above; conditions: biotinylated peptide immobilized at 1 μM; ligand 100 ng/ml; OD 450-620 measured
Description: as §1

TGF-β proteins = experiment: ELISA of Example 1, binding; conditions: result in words
Description: as §1

M2 polarized macrophages = experiment: isPLA of TBK1 after ligand stimulation; type: cell-based, human; conditions: 10 ng/ml o/n, vs untreated control
Description: Human primary M2 polarized macrophages was derived from PBMC obtained from healthy volunteer blood donors. CD14+ cells were isolated using an EasySep CD14 Positive Selection Kit, maintained in RPMI-1640 medium supplemented with 10% FBS, L-Glutamine and Pen-strep. Cells were cultivated for 6 days in the presence of 50 ng/ml recombinant macrophage colony-stimulating factor (M-CSF, R&D Systems) in order to polarize the cells towards an M2 subtype.
For in situ proximity ligation assay (isPLA) experiments the cells were re-plated into 8-well slides (Lab-Tek™ II Chamber Slides, Thermo Fisher).
Cells were stimulated with either TGFB1, TGFB2, TGFB3 at 10 ng/ml. For isPLA, new medium was added, with individual ligands added to separate wells, and the cells incubated o/n prior to fixation in 3% formaldehyde solution for 20 minutes on ice the following day. Fixed cells were washed extensively in PBS and lysed in PBS with 1% Triton at room temperature for 20 minutes. The cells were blocked with Duolink blocking solution (Sigma) and primary antibodies at 1 μg/ml were added o/n. […] The slides were analysed using a Zeiss inverted epiflouroscence microscope set at 20× magnification. DAPI, FITC and CY3.5 channels were recorded. […]

PBMC = experiment: Proseek secreted proteins, PBMC culture; type: cell-based
Description: (§2) Secreted proteins from cell cultures where quantified using multiplexed proximity extension assay, Proseek (Assarsson E et al PlosOne 2014) by Olink Proteomics AB (Uppsala Sweden). Data is presented as Normalized Protein Expression (NPX log 2-scale). The Oncology I v2 92-plex panel was run.
A cell suspension of heparinized peripheral blood was diluted 1:1 and placed on a Ficoll Paque Plus. Cells were centrifuged at 400×g for 30 minutes and the PBMC layer was transferred to a 50 ml tube of PBS and centrifuged for 7 min at 250×g.

MCF7 cells = experiment: Proseek secreted proteins, MCF7 culture; type: cell-based, human; conditions: FIG. 6A: exosomes from MCF7 cells, GDF15 1.5 μg/ml 1 hr
Description: Secreted proteins from cell cultures where quantified using multiplexed proximity extension assay, Proseek (Assarsson E et al PlosOne 2014) by Olink Proteomics AB (Uppsala Sweden). Data is presented as Normalized Protein Expression (NPX log 2-scale). The Oncology I v2 92-plex panel was run. MCF7 cells were cultured in serum-free conditions (No FBS added to DMEM) overnight prior to ligand stimulation, and media was replaced 3 times before stimulation to avoid exosomes from FBS. Cells were either treated with control (PBS) or biologically active GDF15 (Abcam) at 1.5 μg/ml for 1 hr at 37° C. For analyses of exosomes in FIG. 6A, conditioned medium was pre-cleared by centrifugation at 14,000×g for 10 min at 4° C., followed by filtration with a […] filter to avoid contaminants from cell debris, followed by ultracentrifugation at 100,000×g for 2 hrs. Pelleted exosome fraction was lysed with 1% Triton X-100 at 4° C., samples diluted in order to have 0.3% Triton concentration and analysed by Proseek multiplex panel as described above.

NK-92 cells = experiment: Proseek secreted proteins, NK-92 culture; type: cell-based; conditions: NK92 culture
Description: as §2, with “run. NK-92 cells were cultured in RPMI-1640 supplemented with 10% FBS, 12.5% Horse serum, L-glutamine, IL2 and 3-mercaptoethanol.” for “run.”

MCF7 breast cancer cells = experiment: Western blot of PTP1B after ligand stimulation; type: cell-based, human; conditions: ligand 10 ng/ml, vs untreated control

ELISA OD450 TGFb3 (TGFb3) | ELISA OD450 GDF15 (GDF15) | ELISA OD450 TGFb1 (TGFb1) | ELISA OD450 TGFb2 (TGFb2) | binding to TGF-β proteins (TGF-β proteins) | Molecule | other results
0.019 | 0.023 | 0.010 | 0.006 | binds | DTLMNLHVYISEHEHFTDFNATSALFWEQHDLVYGDWTSG (listed as Homo sapiens) [SEQ ID NO: 36] | 
0.065 | 0.140 | 0.152 | 0.019 | binding | GDYYPIIYFNDYWNLQKDYYG (listed as Homo sapiens) [SEQ ID NO: 28] | 
0.0060 | 0.042 | 0.026 | 0.013 | binding | KALYRRLATVHMSRMINKYKG (listed as Homo sapiens) [SEQ ID NO: 17] | 
0.020 | 0.034 | 0.022 | 0.002 | binding | LDQYVKFDAVSGDYYPIIYFG (listed as Homo sapiens) [SEQ ID NO: 21] | 
0.011 | 0.033 | 0.013 | 0.008 |  | LWRWQLYAAQSTKSPWNFLGDELYEQSDEEQDSVKVALLETNP (listed as Homo sapiens) [SEQ ID NO: 33] | 
0.300 | 0.779 | 2.102 | 1.630 | favourable binding | PLDQYVKFDAVSGDYYPIIYFNDYWNLQKDYYPINESLA (listed as Homo sapiens) [SEQ ID NO: 39] | 
0.014 | 0.022 | 0.010 | 0.007 | favourable binding | SGDYYPIIYFNDYWNLQKDYYPINESLASLPLRVSFCPLS (listed as Homo sapiens) [SEQ ID NO: 32] | 
0.029 | 0.061 | 0.032 | 0.014 | favourable binding | VSGDYYPIIYFNDYWNLQKDYYPINESLASLPLRVSFC (listed as Homo sapiens) [SEQ ID NO: 38] | 

Continued, molecule first:

Molecule | ELISA OD450 TGFb3 (TGFb3) | ELISA OD450 GDF15 (GDF15) | ELISA OD450 TGFb1 (TGFb1) | ELISA OD450 TGFb2 (TGFb2) | binding to TGF-β proteins (TGF-β proteins) | other results
36 (DTLMNLHVYISEHEHFTDFNATSALFWEQHDLVYGDWTSG; listed as Homo sapiens) [compound 36] | 0.095 |  |  |  |  | 
38 (VSGDYYPIIYFNDYWNLQKDYYPINESLASLPLRVSFC; listed as Homo sapiens) [compound 38] | 0.091 |  |  |  |  | 
ARSAVVAAGGGSSGQVTSNGSIGRDPPAETQPQNPPAQPA (listed as Homo sapiens) [SEQ ID NO: 34] | 0.018 | 0.220 | 0.043 | 0.025 |  | 
NAWQVIKGVLFRIFIIWAISSWFRRGPAPQDQAGPGGA (listed as Homo sapiens) [SEQ ID NO: 35] | 0.151 | 0.507 | 1.536 | 0.164 |  | 
SGDYYPIIYFNDYWNLQKDYYPINESLA (listed as Homo sapiens) [SEQ ID NO: 40] | 0.007 | 0.021 | 0.177 | 0.009 | favourable binding | 
TGFb1: TGF-β isoform 1, ligand for CLPTM1 |  |  |  |  |  | TBK1 level (M2 polarized macrophages): reduced
TKSGFHPDPRQKALYRRLATVHMSRMINKYKRRRFQKTKN (listed as Homo sapiens) [SEQ ID NO: 37] | 0.041 | 0.055 | 0.015 | 0.009 | binding has also been observed | 
YPINESLASLPLRVSFCPLSG (listed as Homo sapiens) [SEQ ID NO: 27] | 0.068 | 0.098 | 0.011 | 0.005 | binding | 
GDF15: Growth and Differentiation Factor 15, TGF-β superfamily ligand of CLPTM1 (protein) ARNGDHCPLGPGRCCRLHTVRASLEDLGWADWVLSPREVQVTMCIGACPSQFRAANMHAQIKTSLHRLKPDTVPAPCCVPASYNPMVLIQKTDTGVSLQTYDDLLAKDCHCI |  |  |  |  |  | HB-EGF secretion (PBMC): increased; IFNγ expression (PBMC): reduced; Midkine (MK) expression (MCF7 cells): increased
TGFb3: TGF-β isoform 3, ligand for CLPTM1 (protein) ALDTNYCFRNLEENCCVRPLYIDFRQDLGWKWVHEPKGYYANFCSGPCPYLRSADTTHSTVLGLYNTLNPEASASPCCVPQDLEPLTILYYVGRTPKVEQLSNMVVKSCKCS |  |  |  |  |  | CXCL9 secretion (PBMC): reduced; CXCL11 secretion (PBMC): reduced; Caspase-3 secretion (NK-92 cells): increased; PTP1B level (MCF7 breast cancer cells): significantly reduced
